Experimental data as given in patent US7317096 (LEADD B V, dated 2008).

Target: the molecule itself
Assay: size exclusion chromatography (Superose 6 HR 10/30)

B1: MBP-AAP-1 fusion protein (pMAL-AAP-1) (other, not shown: large carriers)
chain: MTMGDKKSPTRPKRQAKPAADEGFWDCSVCTFRNSAEAFKCSICDVRKGTSTRKPRINSQLVAQQVAQQYATPPPPKKEKKEKVEKQDKEKPEKDKEISPSVTKKNTNKKTKPKSDILKDPPSEANSIQSANATTKTSETNHTSRPRLKNVDRSTAQQLAVTVGNVTVIITDFKEKTRSSSTSSSTVTSSAGSEQQNQSSSGSESTDKGSSRSSTPKGDMSAVNDESF
notes: Produced in E. coli, 90 to 95% pure; Printed as 'a Homotrimer or Homo-tetramer'; also called MBP-AAPI
binding result: binds
